In patent US20200262920A1 (AMPHIVENA THERAPEUTICS, published 2020):
Where “and” joins values, the source holds several entries; their conditions need not be identical. Equal values may be shown once.

B1: CD33/CD3 2×2 T-cell engager 20 (bispecific antibody)
chain: DIQMTQSPSSLSASVGDRVTITCRSSTGAVTTSNYANWVQQKPGKAPKGLIGGTNKRAPGVPSRFSGSLIGTDFTLTISSLQPEDFATYYCALWYSNLWVFGQGTKVEIKGGSGGSQVQLVQSGAEVKKPGASVKVSCKASGYTFTSYYMHWVRQAPGQGLEWMGIINPSGGSTSYAQKFQGRVTMTRDTSTSTVYMELSSLRSEDTAVYYCARDVVPAAIDYYGMDVWGQGTTVTVSSGGSGQSVLTQPPSASGTPGQRVTISCSGSSSNIGSNTVNWYQQLPGTAPKLLIYSDNQRPSGVPDRFSGSKSGSSASLAISGLQSDDEADYYCATWDDSLNGAVFGGGTKLTVLGGSGGSEVQLVESGGGLVQPGGSLRLSCAASGFTFSTYAMNWVRQAPGKGLEWVGRIRSKYNNYATYYADSVKDRFTISRDDSKNSLYLQMNSLKTEDTAVYYCARHGNFGNSYVSWFAYWGQGTLVTVSSAAAGSHHHHHH
notes: Non-covalent homodimer
B2: CD33/CD3 2×2 T-cell engager 14 (bispecific antibody)
chain: DIQMTQSPSSLSASVGDRVTITCRSSTGAVTTSNYANWVQQKPGKAPKALIGGTNKRAPGVPSRFSGSLIGDKATLTISSLQPEDFATYYCALWYSNLWVFGQGTKVEIKGGSGGSQVQLVQSGAEVKKPGASVKVSCKASGYTFTSYDINWVRQAPGQGLEWMGWMNPNSGNTGFAQKFQGRVTMTRDTSTSTVYMELSSLRSEDTAVYYCARDRANTDFSYGMDVWGQGTLVTVSSGGSGQSVLTQPPSASGTPGQRVTISCSGSRSNIGSNTVNWYQQLPGTAPKLLIYGNNQRPSGVPDRFSGSKSGTSASLAISGLQSEDEADYYCATWDDSLIGWVFGGGTKLTVLGGSGGSEVQLVESGGGLVQPGGSLRLSCAASGFTFSTYAMNWVRQAPGKGLEWVGRIRSKYNNYATYYADSVKDRFTISRDDSKNSLYLQMNSLKTEDTAVYYCARHGNFGNSYVSYFAYWGQGTLVTVSSAAAGSHHHHHH
notes: Non-covalent homodimer
B3: CD33/CD3 2×2 T-cell engager 18 (bispecific antibody)
chain: EVQLVESGGGLVQPGGSLRLSCAASGFTFSTYAMNWVRQAPGKGLEWVGRIRSKYNNYATYYADSVKDRFTISRDDSKNSLYLQMNSLKTEDTAVYYCARHGNFGNSYVSYFAYWGQGTLVTVSSGGSGGSQSVLTQPPSVSGAPGQRVTISCTGSSSNIGAGYDVHWYQQLPGTAPKLLIYGNSNRPSGVPDRFSGSKSGTSASLAITGLQAEDEADYYCQSYDSSLSDVVFGGGTKLTVLGGSGQVQLVQSGAEVKKPGESLKISCKGSGYSFTSYWIGWVRQMPGKGLEWMGIIYPGDSDTRYSPSFQGQVTISADKSISTAYLQWSSLKASDTAMYYCARHKRGSDAFDIWGQGTTVTVSSGGSGGSDIQMTQSPSSLSASVGDRVTITCRSSTGAVTTSNYANWVQQKPGKAPKALIGGTNKRAPGVPSRFSGSLIGDKATLTISSLQPEDFATYYCALWYSNLWVFGQGTKVEIKAAAGSHHHHHH
notes: Non-covalent homodimer
B4: CD33/CD3 2×2 T-cell engager 23 (bispecific antibody)
chain: DIQMTQSPSSLSASVGDRVTITCRSSTGAVTTSNYANWVQQKPGKAPKGLIGGTNKRAPGVPSRFSGSLIGTDFTLTISSLQPEDFATYYCALWYSNLWVFGQGTKVEIKGGSGGSQVQLVQSGAEVKKPGSSVKVSCKASGGTFSSYGISWVRQAPGQGLEWMGGIIPIFGSAHYAQKFQGRVTITADESTSTAYMELSSLRSEDTAVYYCAREYYYDSSEWAFDIWGQGTLVTVSSGGSGQSVLTQPPSASGTPGQRVTISCSGSSSNIGSNTVKWYQQLPGTAPKLLIYSNNQRSSGVPDRFSGSKSGSSASLAISGLQSEDEADYYCAAWDDSLNGYVFGGGTKLTVLGGSGGSEVQLVESGGGLVQPGGSLRLSCAASGFTFSTYAMNWVRQAPGKGLEWVGRIRSKYNNYATYYADSVKDRFTISRDDSKNSLYLQMNSLKTEDTAVYYCARHGNFGNSYVSWFAYWGQGTLVTVSS
notes: Non-covalent homodimer
B5: CD33/CD3 2×2 T-cell engager 24 (bispecific antibody)
chain: DIQMTQSPSSLSASVGDRVTITCRSSTGAVTTSNYANWVQQKPGKAPKALIGGTNKRAPGVPSRFSGSLIGDKATLTISSLQPEDFATYYCALWYSNLWVFGQGTKVEIKGGSGGSQVQLVQSGAEVKKPGSSVKVSCKASGGTFDSYAISWVRQAPGQGLEWMGGIIPIFGSAHYSQKFQGRVTITADESTSTAYMELSSLRSEDTAVYYCAREYYYDSSEWAFDIWGQGTLVTVSSGGSGQSVLTQPPSASGTPGQRVTISCSGSSSNIGDNVVNWYQQLPGTAPKLLIYSTNKRPSGVPDRFSGSKSGSSASLAISGLQSEDEADYYCAAWDDSLSAYVFGGGTKLTVLGGSGGSEVQLVESGGGLVQPGGSLRLSCAASGFTFSTYAMNWVRQAPGKGLEWVGRIRSKYNNYATYYADSVKDRFTISRDDSKNSLYLQMNSLKTEDTAVYYCARHGNFGNSYVSYFAYWGQGTLVTVSSAAAGSHHHHHH
notes: Non-covalent homodimer
B6: CD33/CD3 2×2 T-cell engager 07 (bispecific antibody)
chain: DIQMTQSPSSLSASVGDRVTITCRSSTGAVTTSNYANWVQQKPGKAPKALIGGTNKRAPGVPSRFSGSLIGDKATLTISSLQPEDFATYYCALWYSNLWVFGQGTKVEIKGGSGGSQVQLQESGGGVVQPGRSLRLSCAASGFSFSNYGIHWVRQAPGKGLEWVALISYDGNKKFYADSVKGRFAISRDTSKNTVDLQMTSLRPEDTAVYYCAKDRLESAAFDYWGQGTLVTVSSGGSGGSSYELTQPPSVSVAPGQTAMITCGGNNIGSTTVHWYQQKPGQAPVLVVYDDNERPSGIPERFSGSNSGSTATLTINRVEAGDEADYYCQVWDSGSDHVVFGGGTKLTVLGGSGGSEVQLVESGGGLVQPGGSLRLSCAASGFTFSTYAMNWVRQAPGKGLEWVGRIRSKYNNYATYYADSVKDRFTISRDDSKNSLYLQMNSLKTEDTAVYYCARHGNFGNSYVSYFAYWGQGTLVTVSSAAAGSHHHHHH
notes: Non-covalent homodimer; also called 2×2 T-cell engager 7

molecular target: T1, human CD33 (human, UniProt P20138 18-364); assay: flow cytometry titration, U-937 cells
T1 construct: whole, on cells; also called huCD33; CD33 on HL-60, KG-1, KG-1a, U-937 cells
Description: (§1) Cells were incubated with 100 μL of serial dilutions of CD33/CD3 2×2 T-cell engagers. After washing three times with FACS buffer the cells were incubated with 0.1 mL of 10 μg/mL mouse monoclonal anti-His antibody in the same buffer for 45 min on ice. After a second washing cycle, the cells were incubated with 0.1 mL of 15 μg/mL FITC-conjugated goat anti-mouse IgG antibodies under the same conditions as before. As a control, cells were incubated with the anti-His IgG followed by the FITC-conjugated goat anti-mouse IgG antibodies without anti-CD33 2×2 T-cell engagers. The cells were then washed again and resuspended in 0.2 mL of FACS buffer containing 2 μg/mL propidium iodide (PI) in order to exclude dead cells. The fluorescence of 1×10⁴ living cells was measured using a Beckman-Coulter FC500 MPL flow cytometer using the MXP software (Beckman-Coulter, Krefeld, Germany) or a Millipore Guava EasyCyte flow cytometer using the Incyte software (Merck Millipore, Schwalbach, Germany). Mean fluorescence intensities of the cell samples were calculated using CXP software (Beckman-Coulter, Krefeld, Germany) or Incyte software (Merck Millipore, Schwalbach, Germany). After subtracting the fluorescence intensity values of the cells stained with the secondary and tertiary reagents alone the values were used for calculation of the KD values with the equation for one-site binding (hyperbola) of the GraphPad Prism (version 6.00 for Windows, GraphPad Software, La Jolla Calif. USA). […]

T1 sequence (P20138 18-364): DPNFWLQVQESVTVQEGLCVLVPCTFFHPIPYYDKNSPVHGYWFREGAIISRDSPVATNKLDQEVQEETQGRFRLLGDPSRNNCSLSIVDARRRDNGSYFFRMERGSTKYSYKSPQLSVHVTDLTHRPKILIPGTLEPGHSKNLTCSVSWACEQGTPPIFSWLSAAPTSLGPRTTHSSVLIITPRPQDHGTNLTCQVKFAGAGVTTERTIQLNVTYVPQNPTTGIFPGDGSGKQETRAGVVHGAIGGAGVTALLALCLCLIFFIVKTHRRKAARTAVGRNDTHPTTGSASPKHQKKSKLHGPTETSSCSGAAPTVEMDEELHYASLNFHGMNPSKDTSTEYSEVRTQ

Kd	Binder
7.2 nM	B1
1.2 nM	B2
15.1 nM	B3
5.1 nM	B4
39.5 nM	B5
47.1 nM	B6

molecular target: T1, human CD33; assay: flow cytometry, HL-60 cells

Kd	Binder
4.1 nM	B1
0.3 nM	B2
0.4 nM	B4
5.6 nM	B5
13.7 nM	B6

molecular target: T1, human CD33; assay: flow cytometry titration, HL-60 cells
Description: as §1

Kd	Binder
4.1 nM	B1
0.3 nM	B2
3.4 nM	B3
0.4 nM	B4
5.6 nM	B5
13.7 nM	B6

molecular target: T2, cynomolgus CD33 (cynomolgus, UniProt A0A7N9ICR5 17-359); assay: ratio of KD by flow cytometry on CHO cells expressing cynomolgus CD33 vs human CD33
T2 construct: whole, on cells; also called cynoCD33; cyno CD33
Description: Cells were incubated with 100 μL of serial dilutions of CD33/CD3 2×2 T-cell engagers. After washing three times with FACS buffer the cells were incubated with 0.1 mL of 10 μg/mL mouse monoclonal anti-His antibody in the same buffer for 45 min on ice. After a second washing cycle, the cells were incubated with 0.1 mL of 15 μg/mL FITC-conjugated goat anti-mouse IgG antibodies under the same conditions as before. As a control, cells were incubated with the anti-His IgG followed by the FITC-conjugated goat anti-mouse IgG antibodies without anti-CD33 2×2 T-cell engagers. The cells were then washed again and resuspended in 0.2 mL of FACS buffer containing 2 μg/mL propidium iodide (PI) in order to exclude dead cells. The fluorescence of 1×10⁴ living cells was measured using a Beckman-Coulter FC500 MPL flow cytometer using the MXP software (Beckman-Coulter, Krefeld, Germany) or a Millipore Guava EasyCyte flow cytometer using the Incyte software (Merck Millipore, Schwalbach, Germany). Mean fluorescence intensities of the cell samples were calculated using CXP software (Beckman-Coulter, Krefeld, Germany) or Incyte software (Merck Millipore, Schwalbach, Germany). After subtracting the fluorescence intensity values of the cells stained with the secondary and tertiary reagents alone the values were used for calculation of the KD values with the equation for one-site binding (hyperbola) of the GraphPad Prism (version 6.00 for Windows, GraphPad Software, La Jolla Calif. USA).
CD3 binding affinity and crossreactivity were evaluated in titration and flow cytometric experiments on CD3⁺ Jurkat cells (provided by Dr. Moldenhauer, DKFZ Heidelberg; human acute T-cell leukemia) and the cynomolgus CD3⁺ HSC-F cell line (JCRB, cat.:JCRB 1164). […] The KD ratio of crossreactivity was calculated using the KD values determined on the CHO cell lines expressing either recombinant human or recombinant cynomolgus antigens.

KD ratio cynoCD33/huCD33	Binder
33.8	B1
3.1	B3
1.9	B4
45.8	B6

molecular target: T1, human CD33; assay: cell-based or functional assay

Binder	EC50, cytotoxicity on HL-60	EC50, cytotoxicity on KG-1	EC50, cytotoxicity on U-937	EC50, cytotoxicity, mean of HL-60, U-937, KG-1
B2	1.6 pM and 168 pg/mL	2.6 pM and 273 pg/mL	3.6 pM and 378 pg/mL	2.6 pM and 273 pg/mL

molecular target: T1, human CD33; assay: flow cytometry titration, KG-1 cells
Description: as §1

Kd	Binder
7 nM	B1
0.3 nM	B2
16.3 nM	B3
1 nM	B4
12.4 nM	B5
47.9 nM	B6

molecular target: T1, human CD33; assay: cell-based or functional assay; remark: another data set of the same source

Binder	EC50 on HL-60 (cytotoxicity)
B1	10 pM
B2	1.6 pM
B3	6.3 pM
B4	2.8 pM
B5	9.6 pM
B6	17.8 pM

molecular target: T3, human CD3 (human, UniProt P07766 23-207; P09693 23-182; P04234 22-171; P20963 22-164); assay: flow cytometry titration, T cells (human CD3+)
T3 construct: whole, on cells; the description names the epsilon chain only 'in certain instances'; also called hu CD3; CD3 on T cells
T3 sequence (P07766 23-207, chain 1 of 4): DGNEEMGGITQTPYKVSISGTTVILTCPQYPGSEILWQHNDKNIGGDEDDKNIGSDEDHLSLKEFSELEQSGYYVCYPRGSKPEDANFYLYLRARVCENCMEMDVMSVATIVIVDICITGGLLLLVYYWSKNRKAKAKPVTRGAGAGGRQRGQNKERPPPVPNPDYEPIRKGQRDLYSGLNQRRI
T3 sequence (P09693 23-182, chain 2 of 4): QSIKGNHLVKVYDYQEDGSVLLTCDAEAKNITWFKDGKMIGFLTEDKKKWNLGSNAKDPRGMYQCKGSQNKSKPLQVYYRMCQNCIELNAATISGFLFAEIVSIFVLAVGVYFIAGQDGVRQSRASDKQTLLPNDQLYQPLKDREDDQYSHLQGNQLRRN
T3 sequence (P04234 22-171, chain 3 of 4): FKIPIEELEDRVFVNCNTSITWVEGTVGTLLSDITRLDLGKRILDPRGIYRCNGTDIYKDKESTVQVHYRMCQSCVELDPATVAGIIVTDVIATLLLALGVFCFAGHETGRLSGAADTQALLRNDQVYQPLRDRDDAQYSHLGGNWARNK
T3 sequence (P20963 22-164, chain 4 of 4): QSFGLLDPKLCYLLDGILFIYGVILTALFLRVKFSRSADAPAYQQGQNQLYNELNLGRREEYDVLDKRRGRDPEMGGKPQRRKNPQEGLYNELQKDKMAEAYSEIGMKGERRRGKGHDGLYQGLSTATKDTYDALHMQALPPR

Kd	Binder
144 nM	B1
2.1 nM	B2
1.9 nM	B3
97.2 nM	B4
2.3 nM	B5
49.7 nM	B6

molecular target: T3, human CD3; assay: flow cytometry, human T-cells

Kd	Binder
144 nM	B1
2.1 nM	B2
97.2 nM	B4
2.3 nM	B5
49.7 nM	B6

molecular target: T3, human CD3; assay: cell-based or functional assay

CD25 Induction EC50	CD69 Induction EC50	T cell Proliferation in PBMC EC50	Binder
98 pM	75 pM	38 pM	B1
10 pM	7 pM	6 pM	B2
41 pM	17 pM	37 pM	B4
–	57 pM	264 pM	B5
134 pM	65 pM	50 pM	B6
